Among the data in PMC11947617, “Fine‐tuned interactions between globular and disordered regions of single‐stranded DNA binding (SSB) protein are required for dynamic condensation under physiological conditions” (Protein Science : A Publication of the Protein Society, 2025) are Kd values, retold here.

The target of the experiment is T1, Escherichia coli single-stranded DNA binding (SSB) protein, wild type (E. coli, UniProt P0AGE0 1-178).
T1 construct: E. coli SSB, wild type; OB domain aa 1-112, IDL aa 113-177 with the CTP aa 169-177; homotetramer of 19-kDa subunits; Construct as described in Harami et al. (2020); also called SSB-WT; WT; source: E. coli ER2566, purified (Polymin P, ammonium sulfate, heparin, MonoQ)
T1 sequence (P0AGE0 whole entry, the tested form may be a part): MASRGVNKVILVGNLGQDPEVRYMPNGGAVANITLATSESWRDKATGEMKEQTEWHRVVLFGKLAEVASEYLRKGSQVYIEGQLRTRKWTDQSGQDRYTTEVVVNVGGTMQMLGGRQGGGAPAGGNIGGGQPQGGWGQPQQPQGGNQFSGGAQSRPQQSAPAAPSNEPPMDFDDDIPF
Nature of the experiment: fluorescence polarisation; 15 nM flu-CTP titrated with SSB or SSBdC; standard LLPS buffer (20 mM Tris-OAc pH 7.5, 50 mM KGlu, 5 mM Mg(OAc)2), no PEG; 25°C; quadratic binding equation. Conditions: both partners purified. On the technique in general: Polarisation of emitted light reports the rotation of a fluorescent probe.

No end group written: not given here. fluorescein = fluorescein label

B1: fluorescein-labeled SSB C-terminal peptide (peptide)
peptide: fluorescein-MDFDDDIPF
notes: also called flu-CTP; labeled C-terminal peptide
Take B1: the equilibrium dissociation constant (Kd) (as a rule, the free concentration of one partner at which half of the binding sites on the other are occupied at equilibrium, for simple one-to-one binding) was above 100 µM.
